Bridge positions count the residues as written; N and C are the ends. Square brackets hold non-standard residues; d marks the D form. Phe(4-Cl) = N[C@@H](Cc1ccc(Cl)cc1)C(=O)O; dPhe(4-Cl) = N[C@H](Cc1ccc(Cl)cc1)C(=O)O; Phe(4-F) = N[C@@H](Cc1ccc(F)cc1)C(=O)O; 2Nal = N[C@@H](Cc1ccc2ccccc2c1)C(=O)O; 3Pal = N[C@@H](Cc1cccnc1)C(=O)O

Sequences and labels used below:
B1: PRL-2915 (peptide)
chain: H-[Phe(4-Cl)]C[3Pal][dW]KIC[2Nal]-NH2
modifications: disulfide 2-7
SMILES: CC[C@H](C)[C@@H]1NC(=O)[C@H](CCCCN)NC(=O)[C@@H](Cc2c[nH]c3ccccc23)NC(=O)[C@H](Cc2cccnc2)NC(=O)[C@@H](NC(=O)[C@@H](N)Cc2ccc(Cl)cc2)CSSC[C@@H](C(=O)N[C@@H](Cc2ccc3ccccc3c2)C(N)=O)NC1=O
B2: PRL-2970 (peptide)
chain: XCYWKTCX
modifications: cyclic disulfide; H-Cpa-cyclo[DCys-Tyr-DTrp-Lys-Thr-Cys]-Nal-NH2
B3: AC-178,335 (peptide)
chain: Ac-HFIRWF-NH2
B4: BIM 23,454 (peptide)
chain: H-[Phe(4-Cl)]C[3Pal]WKVC[2Nal]-NH2
modifications: cysteine pairing not given here
B5: BIM 23,458 (peptide)
chain: H-[Phe(4-F)][dC][3Pal][dW]KIC[2Nal]-NH2
modifications: disulfide 2-7
SMILES: CC[C@H](C)[C@@H]1NC(=O)[C@H](CCCCN)NC(=O)[C@@H](Cc2c[nH]c3ccccc23)NC(=O)[C@H](Cc2cccnc2)NC(=O)[C@H](NC(=O)[C@@H](N)Cc2ccc(F)cc2)CSSC[C@@H](C(=O)N[C@@H](Cc2ccc3ccccc3c2)C(N)=O)NC1=O
B6: BIM 23,627 (peptide)
chain: H-[dPhe(4-Cl)][dC][3Pal]WKVC[2Nal]-NH2
modifications: disulfide 2-7
SMILES: CC(C)[C@@H]1NC(=O)[C@H](CCCCN)NC(=O)[C@H](Cc2c[nH]c3ccccc23)NC(=O)[C@H](Cc2cccnc2)NC(=O)[C@H](NC(=O)[C@H](N)Cc2ccc(Cl)cc2)CSSC[C@@H](C(=O)N[C@@H](Cc2ccc3ccccc3c2)C(N)=O)NC1=O

The first assay deals with SSTR-2 (human).
SSTR-2 (human), sequence (chain, as listed by the source): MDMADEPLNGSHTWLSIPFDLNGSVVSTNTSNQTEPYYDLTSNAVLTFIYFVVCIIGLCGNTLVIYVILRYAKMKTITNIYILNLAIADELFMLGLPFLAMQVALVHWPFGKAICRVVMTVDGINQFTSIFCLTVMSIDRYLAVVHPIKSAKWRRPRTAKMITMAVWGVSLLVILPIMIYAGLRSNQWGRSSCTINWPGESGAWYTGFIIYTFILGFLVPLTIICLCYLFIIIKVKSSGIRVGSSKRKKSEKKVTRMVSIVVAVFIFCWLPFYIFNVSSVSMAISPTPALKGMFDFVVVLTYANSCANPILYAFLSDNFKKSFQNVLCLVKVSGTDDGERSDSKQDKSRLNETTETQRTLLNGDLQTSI
Broadly, the Ki is a measure of affinity in units of concentration, obtained from inhibition or displacement. Read a low Ki as a stronger hold on the target. Regarding B1, the affinity, expressed as Ki, was 12.6 nM.

As to B2, the Ki was determined as 25.1 nM. This Ki lies about 2-fold higher than the previous one. Same read-out and setting: the same measure for B3: 158 nM.

The target in a further assay is SSTR-2 (human). This is another data set of the same source.
One may read the IC50 as the point on the concentration scale where inhibition reaches its midpoint. For the molecule B4, 31.6 nM corresponded to half-maximal inhibition (IC50). This lies in the double-digit nanomolar range. Still for that read-out and setting: with B5 the figure was 27.4 nM; with B6, 6.4 nM.

These data come from US20110064742 (published 2011).
